In patent US7927850B2, “Composition containing trehalose synthase and methods of use thereof” (Academia Sinica, priority 2006, dated 2011):

Assays:
[1] = Enzyme assay: amount of trehalose produced from maltose by PTTS; assay type: biochemical, Picrophilus torridus
Description: (§1) The activity of PTTS was assayed by measuring the amount of trehalose produced from maltose. The standard reaction was performed by adding 1.5 μL purified enzyme into 50 μL reaction solution containing 50 mM sodium phosphate (pH 6.0) and 150 mM maltose and incubating in a 45° C. water bath for 25 min. The assay time was under the linear range of enzyme reaction. The reaction was terminated by heating the mixture in boiling water for 15 min. One unit of enzyme activity was defined as the amount of enzyme that catalyzes the formation of 1 μmol of trehalose per min. Kinetic analysis was performed under conditions of pH 6.0 and 45° C. for 5 min in 50 mM sodium phosphate buffer containing substrate (maltose, trehalose, or maltose plus a constant 10 mM of glucose) at various concentrations. The resulting data were analyzed offline with Origin 6.0 software (Microcal, Northampton, Mass.). All experiments were carried out in duplicate or triplicate.
(§2) The amount of trehalose, glucose, and maltose after each enzymatic reaction was measured using a high performance liquid chromatography (HPLC) (SFD 2100) system equipped with an RI detector (Schambeck S F D, RI 2000) at a flow rate of 0.9 mL/min. A carbohydrate analysis column (HYPERSIL-100 Amino, Thermo Hypersil-Keystone) equilibrated with 75% acetonitrile, 24% Milli-Q water, and 1% formic acid was used. The retention times of glucose, maltose, and trehalose were 8.0, 11.2, and 12.5 min, respectively.

[2] = assay type: biochemical, Picrophilus torridus
Description: FIG. 2 is a graph which illustrates the effects of pH on the activity and stability of Picrophilus torridus trehalose synthase. The enzyme activities at various pH levels were examined at the maltose concentration of 150 mM and temperature of 45° C. for 25 min. The pH stability of Picrophilus torridus trehalose synthase enzyme was examined by measuring the residual activity of enzyme at pH 6.0 after pre-incubation in various pH levels at 45° C. for 20 min. The solid square (▪) and circle (●) notations indicate the enzyme activity under 50 mM sodium phosphate buffer (pH 6.0˜8.5) and 50 mM acetate buffer (pH 3.5˜6.0), respectively. The open square (□) and circle (◯) notations represent the pH stability under 50 mM sodium phosphate buffer (pH 6.0˜8.5) and 50 mM acetate buffer (pH 3.5˜6.0), respectively.
FIG. 3 is a graph which illustrates the effects of temperature on the activity and stability of Picrophilus torridus trehalose synthase. The enzyme activities at various temperatures were examined at the maltose concentration of 150 mM and pH 6.0 for 25 min. To examine temperature stability, the residual activity of the enzyme was measured at 45° C. after pre-incubation of the purified enzyme at different temperatures (4° C.˜100° C.) and pH 6.0 for 20 min. The solid circle (●) and open circle (◯) notations denote the enzyme activity and temperature stability, respectively, under various temperatures.
as §1
Effects of pH and Temperature on the Activity and Stability of Recombinant PTTS. The pH dependence of PTTS was studied at 45° C. in 50 mM acetate buffer (pH 3.5-6.0) or 50 mM phosphate buffer (pH 6.0-8.5) using 150 mM maltose as a substrate. […] The effects of temperature on PTTS activity and stability are depicted in FIG. 3. The optimum temperature was 45° C. and the enzyme maintained stability up to 60° C. at pH 6.0 for 20 min.

[3] = Kinetic analysis of PTTS with maltose or trehalose as substrate; assay type: biochemical, Picrophilus torridus; settings: pH 6.0, 45° C., 5 min
Description: as §1
Kinetics Analysis. Kinetic parameters of PTTS were investigated at pH 6.0 and 45° C. for 5 min using maltose or trehalose as substrate (FIG. 7). […] This kinetic data is useful for determining the baseline activity of the enzyme and enables one of skill in the art to use this activity as a criterion for the isolation or construction of variants having substantially equivalent enzymatic activity.

[4] = Effects of substrate concentration and temperature on the maximum yield of trehalose; assay type: biochemical, Picrophilus torridus
Description: FIG. 4 is a graph which illustrates the effects of substrate concentration on the maximum yield of trehalose by Picrophilus torridus trehalose synthase. Purified enzyme was incubated with different concentrations of maltose in 50 mM sodium phosphate buffer (pH 6.0) at 45° C. Samples were collected at various intervals of reaction time and analyzed by HPLC. The symbols which indicated different concentrations of maltose are open square (□) 1 M; solid square (▪), 500 mM; solid triangle (▴), 250 mM; open rhombus (⋄), 150 mM, and open circle (◯), 50 mM.
FIG. 5 is a series of graphs illustrating the effects of temperature on the formation of trehalose (5A) and glucose (5B) from maltose (5C) by Picrophilus torridus trehalose synthase. Reaction mixtures containing purified Picrophilus torridus trehalose synthase, 150 mM maltose and pH 6.0 sodium phosphate buffer were incubated at various temperatures for 72 h. Samples were collected at various intervals and analyzed by HPLC. The symbols which indicated different reaction temperatures are open square (□) denoting temperature of 20° C.; solid square (▪) denoting temperature of 30° C.; solid triangle (▴) denoting temperature of 45° C.; and open triangle (Δ) denoting temperature of 0° C.
as §2
Effects of Substrate Concentration and Temperature on the Maximum Yield of Trehalose. The effects of the substrate concentration on the yield of trehalose by PTTS were examined at pH 6.0, 45° C., and various maltose concentrations. A maximum conversion was reached after 24 hour incubation for each reaction. The final yield of trehalose increased as the substrate concentration increased. […] Therefore, a higher maximum yield was gained at a lower temperature.

[5] = as above; assay type: biochemical, Picrophilus torridus; settings: 150 mM maltose, pH 6.0, 60° C., three days
[6] = 150 mM maltose, pH 6.0, 20° C., three days
[7] = 150 mM maltose, pH 6.0, 30° C., three days
[8] = 150 mM maltose, pH 6.0, 45° C., three days
[9] = 150 mM maltose, pH 6.0, 60° C., three days

B1: PTTS: recombinant Picrophilus torridus trehalose synthase with C-terminal linker and His(6)-tag (SEQ ID NO: 4), expressed in E. coli (protein, listed as Picrophilus torridus)
chain: MLDNNGLWYRDAVFYEVPVKSFYDSNNDGIGDFNGLTMKLDYLKKLGVDALWLLPFYKSPLKDDGYDISDYYSILPEYGTIDDFKNFIDTAHSMNIRVIADLVLNHVSDQHPWFIESRSSIDNPKRDWFIWSDTPEKFKEARIIFIDTEKSNWTYDPETKQYYFHRFYSSQPDLNYDNPDVRNEVKKVIRYWLDLGLDGFRADAVPYLFKRENTNCENLPETHNFFKEIRKMMDEDYPGTILLAEANQWPTETKAYFGNGDEFHMAFNFPLMPRIFIALARSDYYPIMDIIKQTLPIPDNCDWCIFLRNHDELTLEMVTDSERDIMYREYAKIPKMRLNLGIRRRLAPLADNDINTIELLNALIFSLPGTPIIYYGDEIGMGDNIYLGDRNGVRTPMQWSYDRNAGFSMADSEQLYSPVITNPNYHYESVNVEAELRLSSSLLNWMIKIIHVRKDYKELLGRGSIKFIEQGNKRVLSYIREYENQRMLCLFNLSRNPTYVELNLSDYIGLKPIEAITKAAFPRIKDDRYFITMTPRSFFWFNLIVPERDDSYDLIGEDANSRVDKLAAALEHHHHHH
For B1, the specific activity ([1]; purified recombinant His-tag PTTS after Ni-column, 1 unit = 1 μmol trehalose per min) was 80 units per mg of protein, the “specific activity toward maltose” value ([1]; recombinant PTTS, estimated) was “about 80 units/mg protein” and the “specific activity as share of that of T. aquaticus trehalose synthase” value ([1]; toward maltose) was “about 60%”. For the same molecule, the “specific activity relative to M. smegmatis trehalose synthase” value ([1]; toward maltose) was “about 2.8 fold”, the “specific activity relative to P. stutzeri CJ38 trehalose synthase” value ([1]; toward maltose) was “roughly equal” and the “specific activity relative to Pimelobacter trehalose synthase” value ([1]; toward maltose) was “about 4.7 fold”. For the same molecule, the “activity at pH 5.0” value ([2]; 45° C., 150 mM maltose) was “maintained high activity”, the “optimum pH” value ([2]; 45° C., 150 mM maltose, acetate or phosphate buffer) was 6.0 and the “activity maintained at pH 5.0” value ([2]; pH 5.0) was 80%. The optimum temperature ([2]; pH 6.0, 150 mM maltose) was 45 °C, the “enzyme efficiency (kcat/KM) toward maltose relative to trehalose” value [3] was 2.5 fold and the “kcat for trehalose relative to maltose” value [3] was “twofold higher”. For the same molecule, the glucose content [4, 6] was 3.6%, the maltose content [4, 6] was 25.4% and the “maximum conversion of maltose into trehalose” value [4, 6] was 71%. For the same molecule, the glucose content [4, 7] was 4.3%, the maltose content [4, 7] was 27.6% and the “maximum conversion of maltose into trehalose” value [4, 7] was 68%. The glucose content [4, 8] was 7.8%, the maltose content [4, 8] was 31.2% and the “maximum conversion of maltose into trehalose” value [4, 8] was 61%. For the same molecule, the glucose content [4, 9] was 19.2%, the maltose content [4, 9] was 31.3% and the “incubation time to reach maximum conversion” value ([4]; pH 6.0, 45° C., each maltose concentration) was 24 h. The “maximum conversion of maltose into trehalose” value ([4]; pH 6.0, 45° C., various maltose concentrations (50 mM to 1 M)) was “around 60%” and the “maximum conversion of maltose into trehalose” value [5] was 50%.
